Changes are numbered by the printed parent chain. Names and notes keep the numbering of the source.
Target: the molecule itself
Assay: crystal structure

B1: C-terminal bZIP domain of human C/EBPβ (residues 269–344), wild type (domain or fragment)
chain: HMKHSDEYKIRRERNNIAVRKSRDKAKMRNLETQHKVLELTAENERLQKKVEQLSRELSTLRNLFKQLPEPLLASSGH
  binding result: binds

B2: C-terminal bZIP domain of human C/EBPβ (residues 269–344), V285A variant (domain or fragment)
chain: B1 chain with V19A
  binding result: binds

From article PMC6393304 (Nucleic Acids Research, 2018)
